Drawing on the RNAGym collection of RNA variant scans (doi:10.1093/molbev/msab373), this text covers reverse-splicing fitness for 83 variants.

B1: Azoarcus group I ribozyme (parent)
chain: GUGCCUUGCGCCGGGAAACCACGCAAGGGAUGGUGUCAAAUUCGGCGAAACCUAAGCGCCCGCCCGGGCGUAUGGCAACGCCGAGCCAAGCUUCGGCGCCUGCGCCGAUGAAGGUGUAGAGACUAGACGGCACCCACCUAAGGCAAACGCUAUGGUGAAGGCAUAGUCCAGGGAGUGGCGAAAGUCACACAAACCGG

The series covers variants of B1. The series can be described thus: reverse-splicing fitness (ratio to wild type); higher = more active; in vitro selection; Mg2+ level not given. The gist of the method:
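An in vitro group I ribozyme library with randomized positions was T7-transcribed and gel-purified. In triplicate, 10 pmol RNA in EPPS pH 7.5 was reacted with 50 pmoles of a 30-nt RNA substrate for 1 h at 37 °C across several added MgCl2 levels (1–48 mM), then stopped with EDTA. Products were reverse transcribed from a substrate-complementary primer, PCR-amplified and sequenced (HiSeq 4000). Fitness is a variant's read proportion after selection over that before, normalised to wild type.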
On to C82U A111U A120U A145G C150U C169U U176C, for which the reverse-splicing fitness came out at 0.00399.
Then C82G A111C A120C A145G C169G U176A, with 0.0188; and C82U A111U A145G C150U C169G U176A, with 0.0133.
Under A111U A120C A145G C150A C169U stands 0.034; under C82G A111C A120C A145C C150G C169A U176A, 0.00832.
In the case of C82A A111G A120C A145U C150G C169G U176C, the reverse-splicing fitness was 0.00564.
A111U A120U A145G C150A C169U U176G: the reverse-splicing fitness turned out to be 0.00312.
With C82U A111C A145U C150A C169U, the reverse-splicing fitness was found to be 0.0103.
Under C82G A111G A120C C150A C169A U176G stands 0.00841.
For the variant A111C A120C A145C C150U U176A, the reverse-splicing fitness is 0.069.
Turning to C82U A120G A145C C150G U176G, the reverse-splicing fitness is 0.00257.
Then C82U A120G A145G C150G, with 0.00813; and C82G A111U A120C A145U C150A C169G U176C, with 0.0247.
Then C82G A111G A120C A145U C169U U176A, with 0.0129; and C82A A120G C150A C169G, with 0.0102; and C82U A120U A145C C169G U176A, with 0.00282.
Consider C82A A111G A120G A145C U176G, for which the reverse-splicing fitness worked out at 0.00516.
Then C82A A120U A145C C150U C169A U176G, with 0.002; and C82U A145C C150A U176C, with 0.0348; and C82U A111U A120C A145C C150A C169G U176G, with 0.00543.
Under C82A A111U A120C A145C C169U U176C stands 0.0149.
Under C82U A111C A120C A145G C169A U176C stands 0.0232.
As to C82A A120U A145C C150A C169G U176C, the reverse-splicing fitness was found to be 0.00352.
Under C82U A111G C150G C169U stands 0.00811; under C82G A120C C169U U176C, 0.0155; under C82U A120G A145U C150A C169G, 0.0077.
Under C82U A111C A120G A145G stands 0.0154.
Then C82U A111G A120G A145U C150U C169A U176A, with 0.0119; and C82U A120G A145G C150A C169A, with 0.0113.
Consider A111C A120G A145U C150U C169A, for which the reverse-splicing fitness worked out at 0.0731.
With A111G A120U A145C C150U C169U U176A, the reverse-splicing fitness was determined as 0.00601.
Under A111G A120U A145C C150U C169U U176C stands 0.00282; under C82A A111C A145U C150G C169G U176C, 0.0061.
For the variant A111C A120U A145U C150G C169A U176A, the reverse-splicing fitness came to 0.00343.
Under C82U A111U A145U C150G C169U U176C stands 0.0107.
Under A111G C169A U176A stands 0.0183.
Under C82U A111U A145C C169A stands 0.00671; under C82U A111C A120G A145G C150U U176C, 0.0169; under A111U C150A C169U U176G, 0.00721.
Turning to C82U A111C A120G A145C C150G C169U U176A, the reverse-splicing fitness turned out to be 0.00949.
Under A111G A120G A145C C150G C169U U176A stands 0.0176; under A111C A120G C169U U176C, 0.0498; under A111C A120G C169U U176A, 0.0433.
Then A111G A120G A145C C150G C169A U176C, with 0.00969; and C82U A120G A145U C150U C169G, with 0.0171; and C82A A111C A120G A145C C150A, with 0.00818.
C82A A111U A120G C150U C169A: the reverse-splicing fitness was 0.0106.
Under C82U A111G A120U U176G stands 0.00489.
Under A111U A120G A145U C150G C169G U176A stands 0.00701.
Consider C82G A111G A120G C150U C169A, for which the reverse-splicing fitness came out at 0.0118.
Under C82G A120U A145C C150U C169A U176G stands 0.00172; under A120G A145C C169A, 0.41; under C82U A111C A120U A145C C150U C169G, 0.00293.
For the variant C82G A111U A120G A145C C150A C169A U176A, the reverse-splicing fitness was 0.0145.
Under C82G A111G A120U A145G C150U C169G U176C stands 0.00595; under C82U A111C A120U C150U C169A U176A, 0.00486.
Under C82A A111G A120G A145C C150U C169U U176G stands 0.00537; under A111G A120C A145U C150G C169A U176A, 0.00723.
Under C82G A111G A120C C150U U176G stands 0.0127; under A120G A145U, 0.508.
Turning to A111C A120C A145C C150G C169U, the reverse-splicing fitness turned out to be 0.0267.
Then A120C A145U C150G C169G U176A, with 0.00633; and A111U A120C A145C C150G C169U, with 0.0236; and C82U A111G A120U A145U C169U U176G, with 0.0016.
Then C82G A111U A120U A145G C169A, with 0.00459; and A111C A120C A145U C150U C169G U176C, with 0.0132; and C82A A111G A120U C150U C169U U176A, with 0.00475.
Then C82G A111G A120G A145U C150A C169U U176G, with 0.00582; and C82G A111C A145C C169U U176A, with 0.018.
Consider C82A A120U A145C C169G U176G, for which the reverse-splicing fitness is 0.00139.
Then C82U A111C A120U A145C C150G C169G U176G, with 0.00241.
Turning to C82A A111C A120G A145C C150A C169U U176A, the reverse-splicing fitness was found to be 0.0142.
Then C82A A111G A145C C169A U176A, with 0.0123; and C82U A145U, with 0.626.
Under C82G A111G A120U C150G C169U U176G stands 0.00278; under C82G A120U A145C C169U U176A, 0.00266; under A120U C169A, 0.0174.
Under C82G A111C C150U C169U U176G stands 0.00854.
In the case of C82G A111C A120U A145C C150G C169U U176G, the reverse-splicing fitness stood at 0.00222.
Under C82G A120U A145C C169A stands 0.00201.
Then C82A A111C A120C A145U C169U, with 0.0133; and C82U A111C A120C A145U C169U U176A, with 0.0127.
Then C82G A111G A120U, with 0.0726.
